The values below come from patent publication US20230159643A1.

The assay has as its target Sortilin SORTECD_HIS (human) (UniProt Q99523). As to the kind of experiment: HTRF: displacement of PGRN binding to His-tagged Sortilin ECD.

Some results are limits rather than exact numbers.

Sortilin SORTECD_HIS (human), sequence (Q99523 other isoform, or with tags, fused parts or gaps limits assumed): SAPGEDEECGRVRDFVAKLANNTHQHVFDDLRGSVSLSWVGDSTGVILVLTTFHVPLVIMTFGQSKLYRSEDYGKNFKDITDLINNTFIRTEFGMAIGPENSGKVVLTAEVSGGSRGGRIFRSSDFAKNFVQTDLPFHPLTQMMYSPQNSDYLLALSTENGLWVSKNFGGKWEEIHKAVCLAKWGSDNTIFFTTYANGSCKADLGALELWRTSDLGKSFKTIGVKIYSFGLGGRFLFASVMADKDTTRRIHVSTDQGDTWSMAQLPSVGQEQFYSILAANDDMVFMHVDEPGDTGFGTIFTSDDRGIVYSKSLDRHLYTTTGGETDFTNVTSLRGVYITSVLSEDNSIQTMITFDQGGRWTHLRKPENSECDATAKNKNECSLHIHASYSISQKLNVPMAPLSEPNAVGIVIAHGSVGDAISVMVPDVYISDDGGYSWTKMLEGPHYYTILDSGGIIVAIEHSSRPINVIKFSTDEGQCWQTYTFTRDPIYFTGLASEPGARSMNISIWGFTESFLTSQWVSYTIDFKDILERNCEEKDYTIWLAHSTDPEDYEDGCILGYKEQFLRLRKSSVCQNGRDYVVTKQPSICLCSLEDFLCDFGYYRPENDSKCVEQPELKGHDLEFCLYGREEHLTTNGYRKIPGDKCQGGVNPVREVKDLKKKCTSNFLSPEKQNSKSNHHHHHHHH

A word on the IC50: it is the concentration needed to halve the response being measured. Low values mean greater potency, high ones weaker potency. IgG1-b12 (antibody): the IC50 is over 1000 nM.
